Measured values from PMC3045209.

Biological target: protein A (UniProt P38507)
Assay: SPR

Q: With rabbit IgG (antibody) as the substance, how does the SPR angle increase read?
A: 2.1 °
